Source: article PMC13137973

Tests used:
[1] = molecular target: Biotinylated human TNFR2 protein (human) (UniProt P20333); experiment: BLI
[2] = molecular target: human immunodeficiency virus 1 (HIV-1) (group M, subtype B, Isolate MN) gp120 Protein (HIV-1 (group M, subtype B, isolate MN)) (UniProt P05877); experiment: flow cytometry on cells

Sequence of recombinant TNFR2 protein (soluble, exogenous) (P20333 23-257): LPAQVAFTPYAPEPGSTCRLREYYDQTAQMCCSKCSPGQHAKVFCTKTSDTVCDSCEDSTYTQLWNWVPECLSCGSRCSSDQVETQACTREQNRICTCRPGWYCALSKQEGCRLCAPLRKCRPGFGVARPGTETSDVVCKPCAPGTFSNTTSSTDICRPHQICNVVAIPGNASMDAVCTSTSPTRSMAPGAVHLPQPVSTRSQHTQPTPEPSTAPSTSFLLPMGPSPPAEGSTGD
Sequence of Biotinylated human TNFR2 protein (human) (P20333 23-257): as above

Substance | Kd [1] [nM] | IC50 [2] [nM] | reduction in gp120 binding to Jurkat cells [2] [%]
human immunodeficiency virus 1 (HIV-1) (group M, subtype B, Isolate MN) gp120 Protein (from UniProt P05877 30-513) (natural protein) | 86.5 |  | 
recombinant TNFR2 protein (soluble, exogenous) (from UniProt P20333-1 23-257) (domain or fragment) |  | 107 | 65
